According to IntAct's records for PubMed 40088780:

Biological target: tor1a_human TOR1A (UniProt O14656)

effect of a mutation on the interaction: decreasing interaction strength
Substance: Torsin-1A-interacting protein 2 (Homo sapiens), Q8NFQ8 R412G
